B1: MamM-CTD (residues 215-318) (domain or fragment, Magnetospirillum gryphiswaldense MSR-1, UniProt V6F235 215-318, looked up)
chain: EAVQNRIVEAAERVPGVRGVIHLRARYVGQDIWADMIIGVDPENTVEQAHEICEAVQAAVCGKIRRIESLHVSAEAREIGDTTKPSFSDQPLSFDEVMLSKVDN
notes: MamM, cation diffusion facilitator of the magnetosome membrane, Magnetospirillum gryphiswaldense MSR-1; Uniformly 13C,15N labelled for the solid-state NMR; also called apo-MamM-CTD; source: purified
B2: MamM-CTD V260P (domain or fragment, Magnetospirillum gryphiswaldense MSR-1, UniProt V6F235 215-318, looked up)
chain: EAVQNRIVEAAERVPGVRGVIHLRARYVGQDIWADMIIGVDPENTPEQAHEICEAVQAAVCGKIRRIESLHVSAEAREIGDTTKPSFSDQPLSFDEVMLSKVDN
notes: MamM, Magnetospirillum gryphiswaldense MSR-1; also called V260P MamM-CTD mutant; recombinant MamM-CTD V260P; source: recombinant
B3: C-terminal truncation MamM-CTD mutant (residues 215-293) (domain or fragment, Magnetospirillum gryphiswaldense MSR-1, UniProt V6F235 215-293, looked up)
chain: EAVQNRIVEAAERVPGVRGVIHLRARYVGQDIWADMIIGVDPENTVEQAHEICEAVQAAVCGKIRRIESLHVSAEAREI
notes: MamM, Magnetospirillum gryphiswaldense MSR-1; source: purified

Target: the molecule itself
Test: SEC; Superdex200; apo proteins; elution volume against a calibration curve of marker proteins

Stoichiometry N, 2:
B1, B2, B3
